Residue numbers refer to the chain shown, from its start. Numbers in names are those of the source.
Tests used:
[1] = target: MazF-mt9 (Mycobacterium tuberculosis); experiment: ITC
[2] = target: the molecule itself; experiment: crystal structure

B1: MazE-mt1 (natural protein)
chain: MKLSVSLSDDDVAILDAYVKRAGLPSRSAGLQHAIRVLRYPTLEDDYANAWQEWSAAGDTDAWEQTVGDGVGDAPR
**Q.** How did the Kd [1] turn out when B1 was run?
**A.** 59.3 nM

B2: MazE-mt1 D69A mutant (natural protein)
chain: B1 chain with D69A
**Q.** With B2 as the binder, how does the fold weakening of affinity against WT MazE-mt1 [1] read?
**A.** 5.3 fold

B3: MazE-mt9 (natural protein)
chain: MSTSTTIRVSTQTRDRLAAQARERGISMSALLTELAAQAERQAIFRAEREASHAETTTQAVRDEDREWEGTVGDGLG
**Q.** Does B3 bind [2]?
**A.** binds

**Q.** And the Kd [1]?
**A.** 17.5 nM

B4: MazE-mt9 R46A-E48A-D74A triple mutant (natural protein)
chain: B3 chain with R46A, E48A, D74A
**Q.** With B4 as the binder, how does the fold increase of KD against WT MazE-mt9 [1] read?
**A.** 8 fold

B5: MazE-mt9 D74A mutant (natural protein)
chain: B3 chain with D74A
**Q.** B5 was tested. Which fold increase of KD against WT MazE-mt9 [1] did it give?
**A.** 2 fold
